Data taken from patent US20230322953A1 (HARBOUR BIOMED SHANGHAI, published 2023).

B1: PR002326 (bispecific antibody, human IgG1, lambda, L234A L235A)
light: QAVVTQEPSLTVSPGGTVTLTCRSSTGAVTTSNYANWVQQKPGQAPRGLIGGTNKRAPWTPARFSGSLLGDKAALTLLGAQPEDEAEYFCALWYSNLWVFGGGTKLTVLGQPKAAPSVTLFPPSSEELQANKATLVCLISDFYPGAVTVAWKADSSPVKAGVETTTPSKQSNNKYAASSYLSLTPEQWKSHRSYSCQVTHEGSTVEKTVAPTECS
heavy: EVQLLESGGGLVQPGGSLRLSCAASGFTFSTYAMNWVRQAPGKGLEWVSRIRSKYNNYATYYADSVKDRFTISRDDSKSTLYLQMNSLRAEDTAVYYCVRHGNFGNSYVSWFAYWGQGTLVTVSSASTKGPSVFPLAPSSKSTSGGTAALGCLVKDYFPEPVTVSWNSGALTSGVHTFPAVLQSSGLYSLSSVVTVPSSSLGTQTYICNVNHKPSNTKVDKKVEPKSCDKTHTCPPCPAPEAAGGPSVFLFPPKPKDTLMISRTPEVTCVVVDVSHEDPEVKFNWYVDGVEVHNAKTKPREEQYNSTYRVVSVLTVLHQDWLNGKEYKCKVSNKALGAPIEKTISKAKGQPREPQVYTLPPCREEMTKNQVSLWCLVKGFYPSDIAVEWESNGQPENNYKTTPPVLDSDGSFFLYSKLTVDKSRWQQGNVFSCSVMHEALHNHYTQKSLSLSPGK
chain: EVQLVETGGGLIQPGGSLRLSCAASGFTVSSNYMTWVRQAPGKGLEWVSVIFSGGSTYYADSVKGRFTISRDNSKNTLYLQMNSLRAEDTAVYYCARRIAVAGHDVFDIWGQGTMVTVSSRTGGGGSGGGGSGGGGSKLEVQLVETGGGLIQPGGSLRLSCAASGFTVSDNYMTWVRQAPGKGLEWVSVIFSGGNTYYADSVKGRFTISRDNAKNTLYLQMNSLRAEDTALYYCARRNYDDTRGTDVFDIWGQGTMVTVSSASEPKSSDKTHTCPPCPAPEAAGGPSVFLFPPKPKDTLMISRTPEVTCVVVDVSHEDPEVKFNWYVDGVEVHNAKTKPREEQYNSTYRVVSVLTVLHQDWLNGKEYKCKVSNKALGAPIEKTISKAKGQPREPQVCTLPPSREEMTKNQVSLSCAVKGFYPSDIAVEWESNGQPENNYKTTPPVLDSDGSFFLVSKLTVDKSRWQQGNVFSCSVMHEALHNHYTQKSLSLSPGK
B2: PR002328 (bispecific antibody, human IgG1, lambda, L234A L235A)
light: QAVVTQEPSLTVSPGGTVTLTCRSSTGAVTTSNYANWVQQKPGQAPRGLIGGTNKRAPWTPARFSGSLLGDKAALTLLGAQPEDEAEYFCALWYSNLWVFGGGTKLTVLGQPKAAPSVTLFPPSSEELQANKATLVCLISDFYPGAVTVAWKADSSPVKAGVETTTPSKQSNNKYAASSYLSLTPEQWKSHRSYSCQVTHEGSTVEKTVAPTECS
heavy: EVQLLESGGGLVQPGGSLRLSCAASGFTFSTYAMNWVRQAPGKGLEWVSRIRSKYNNYATYYADSVKDRFTISRDDSKSTLYLQMNSLRAEDTAVYYCVRHGNFGNSYVSWFAYWGQGTLVTVSSASTKGPSVFPLAPSSKSTSGGTAALGCLVKDYFPEPVTVSWNSGALTSGVHTFPAVLQSSGLYSLSSVVTVPSSSLGTQTYICNVNHKPSNTKVDKKVEPKSCDKTHTCPPCPAPEAAGGPSVFLFPPKPKDTLMISRTPEVTCVVVDVSHEDPEVKFNWYVDGVEVHNAKTKPREEQYNSTYRVVSVLTVLHQDWLNGKEYKCKVSNKALGAPIEKTISKAKGQPREPQVYTLPPCREEMTKNQVSLWCLVKGFYPSDIAVEWESNGQPENNYKTTPPVLDSDGSFFLYSKLTVDKSRWQQGNVFSCSVMHEALHNHYTQKSLSLSPGK
chain: EVQLVETGGGLIQPGGSLRLSCAASGFTVSSNYMTWVRQAPGKGLEWVSVIFSGGSTYYADSVKGRFTISRDNSKNTLYLQMNSLRAEDTAVYYCARRIAVAGHDVFDIWGQGTMVTVSSRTGGGGSGGGGSGGGGSGGGGSGGGGSKLEVQLVETGGGLIQPGGSLRLSCAASGFTVSDNYMTWVRQAPGKGLEWVSVIFSGGNTYYADSVKGRFTISRDNAKNTLYLQMNSLRAEDTALYYCARRNYDDTRGTDVFDIWGQGTMVTVSSASEPKSSDKTHTCPPCPAPEAAGGPSVFLFPPKPKDTLMISRTPEVTCVVVDVSHEDPEVKFNWYVDGVEVHNAKTKPREEQYNSTYRVVSVLTVLHQDWLNGKEYKCKVSNKALGAPIEKTISKAKGQPREPQVCTLPPSREEMTKNQVSLSCAVKGFYPSDIAVEWESNGQPENNYKTTPPVLDSDGSFFLVSKLTVDKSRWQQGNVFSCSVMHEALHNHYTQKSLSLSPGK

Assays:
human BCMA = molecular target: T1, human BCMA (human, UniProt Q02223 1-184); test: FACS on NCI-H929 cells
T1 construct: whole, on cells; also called hBCMA; TNFRSF17
T1 sequence (looked up): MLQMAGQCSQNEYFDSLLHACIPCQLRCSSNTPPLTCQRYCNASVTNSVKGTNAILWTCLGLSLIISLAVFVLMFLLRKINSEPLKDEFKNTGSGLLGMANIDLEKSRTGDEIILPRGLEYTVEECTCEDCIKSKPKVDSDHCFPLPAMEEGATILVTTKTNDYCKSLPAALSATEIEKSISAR

cynomolgus monkey BCMA = molecular target: T2, cynomolgus monkey BCMA (cynomolgus monkey, UniProt A0A2K5UD97 1-183); test: FACS on HEK293T/cyno BCMA cells
T2 construct: whole, on cells; also called cyno BCMA
T2 sequence (A0A2K5UD97 entry or part of it): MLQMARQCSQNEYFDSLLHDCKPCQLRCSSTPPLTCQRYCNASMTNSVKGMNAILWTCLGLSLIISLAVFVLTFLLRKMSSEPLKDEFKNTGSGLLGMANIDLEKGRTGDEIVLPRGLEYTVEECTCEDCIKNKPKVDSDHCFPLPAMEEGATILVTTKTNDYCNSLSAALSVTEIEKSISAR

Row | Binder | EC50 (human BCMA) [nM] | Maximum MFI (human BCMA) | Maximum MFI (cynomolgus monkey BCMA)
1 | B1 | 3.54 | 60000 | 6440
2 | B2 | 6.89 | 58900 | 7810
